The target of one series is T1, mouse plasma enzyme (Mus musculus, UniProt P23953).
T1 construct: 100-200 ug of ADC were incubated in mouse plasma (provided by Bioreclamation); tissue Bioreclamation; host or cells: mouse plasma
T1 sequence (P23953 19-554): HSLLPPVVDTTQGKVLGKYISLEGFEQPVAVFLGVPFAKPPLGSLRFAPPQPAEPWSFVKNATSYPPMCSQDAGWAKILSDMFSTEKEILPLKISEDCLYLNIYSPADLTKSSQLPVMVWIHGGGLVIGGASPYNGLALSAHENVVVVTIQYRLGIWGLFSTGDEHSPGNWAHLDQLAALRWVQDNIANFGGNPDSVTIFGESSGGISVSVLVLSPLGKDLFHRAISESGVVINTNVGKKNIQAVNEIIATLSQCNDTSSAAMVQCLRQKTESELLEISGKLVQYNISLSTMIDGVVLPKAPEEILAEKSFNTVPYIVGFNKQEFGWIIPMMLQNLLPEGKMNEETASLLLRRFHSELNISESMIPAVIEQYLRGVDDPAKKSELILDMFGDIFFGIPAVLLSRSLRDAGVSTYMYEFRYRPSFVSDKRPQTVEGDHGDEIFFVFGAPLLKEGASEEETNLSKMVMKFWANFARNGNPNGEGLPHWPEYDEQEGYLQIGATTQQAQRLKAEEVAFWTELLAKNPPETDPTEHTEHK
The series is classed as biochemical. From the text:
First, Balb/c serum (BioreclamationIVT) was depleted of IgG and albumin using commercially available MabSelect Protein A and Protein G resins (GE Healthcare), followed by Qproteome Murine Albumin Depletion Kit (Qiagen). The depleted serum was then subjected to sequential precipitation with ammonium sulfate. Fractions with the highest linker hydrolase activity were then applied to cation exchange HiTrap SP column (GE Healthcare) using step gradient elutions with sodium chloride. After that, SP fractions with the highest activity were applied to anion exchange HiTrap Q column (GE Healthcare) using step gradient elutions with sodium chloride. Fractions with the highest hydrolase activity were then combined and size fractionated using Superdex 200 column (GE Healthcare). […] To verify the correct identification of mouse Carboxylesterase 1C as the plasma enzyme responsible for linker cleavage, the recombinant protein was expressed in Expi 293 cells, and purified using a HIS tag following standard protocols.

Series [1] can be described thus: In Vitro Stability Assay—Mouse Plasma. It counts as in vitro ADME. The settings on record: for DAR: before plasma incubation.
Description: 100-200 ug of ADC were incubated in mouse plasma (provided by Bioreclamation) supplemented with 1×PBS to the final ADC concentration of 0.125 mg/mL. Following incubation for 3-7 days, samples were diluted with an equal volume of 1×PBS, and ADCs were isolated using Trop2 antigen coupled to CNBr-activated Sepharose (GE Healthcare) using standard protocols. Drug-antibody ratios were assessed before and after in vitro exposure using HIC methods and mass spectrometry.
DAR values for conjugates purified after plasma incubation were compared to DAR values prior to plasma treatment.
A short description of series [2]: Stability in SCID mouse plasma of linker-payloads conjugated to Combo_Rd4_0.6nM_C29 anti-BCMA antibody. The series is classed as in vitro ADME. To be noted: LCQ05 tag.
[3] abbreviates: Trop-2 antibody attachment position TG6, HIC or mass spectrometry.
[4] abbreviates: attachment position L11B, % DAR remaining after plasma 3 or 4.5 days.

We go through ten molecules from patent US10967068B2, “Stability-modulating linkers for use with antibody drug conjugates” (priority 2014, dated 2021).

Where two headings read alike, the source gives them in different places. *1 amine or outer side, *2 acyl side, *3 side chain or, on linkers, in order; H or OH if unused. Where a SMILES comes first, the peptide text is derived from it. [ ]: non-standard residue; d: D form. The star is where a group is joined. Dolaproine = CO[C@@H]([C@@H]1CCCN1)[C@@H](C)C(=O)O; Dil = CC[C@H](C)[C@H](NC)[C@@H](CC(=O)O)OC; Benzenesulfonyl = O=S(=O)(c1ccccc1)*; PABC = O=C(OCc1ccc(N[*:1])cc1)[*:2]; Doe = c1ccc(C[C@H](N*)c2nccs2)cc1; Cit = NC(=O)NCCC[C@H](N)C(=O)O; X1 = NCCOCCOCCOCCOCCOCC*; Aib = CC(C)(N)C(=O)O; Ethyl(2-NH2) = NCC*; X3 = NCCOCC*

Consider `O=[N+]([O-])c1ccc(OP(=O)(O)Oc2ccc([N+](=O)[O-])cc2)cc1` [BNPP], for which, on mouse plasma enzyme, the “inhibition of the mouse plasma enzyme (linker cleavage)” value is “inhibited”.
With `CC[C@H](C)[C@@H]([C@@H](CC(=O)N1CCC[C@H]1[C@H](OC)[C@@H](C)C(=O)N[C@@H](Cc1ccccc1)c1nccs1)OC)N(C)C(=O)[C@@H](NC(=O)C(C)(C)NC(=O)OCc1ccc(NC(=O)[C@H](CCCNC(N)=O)NC(=O)[C@@H](NC(=O)[C@H](CCCCN)NS(=O)(=O)c2ccccc2)C(C)C)cc1)C(C)C` [Example 45, N˜2˜-(phenylsulfonyl)lysyl-L-valyl-N-{4-[(8S,11S,12R)-11-[(2S)-butan-2-yl]-12-(2-{(2S)-2-[(1R,2R)-1-methoxy-2-methyl-3-oxo-3-{[(1S)-2-phenyl-1-(1,3-thiazol-2-yl)ethyl]amino}propyl]pyrrolidin-1-yl}-2-oxoethyl)-5,5,10-trimethyl-3,6,9-trioxo-8-(propan-2-yl)-2,13-dioxa-4,7,10-triazatetradec-1-yl]phenyl}-N˜5˜-carbamoylornithinamide] (Benzenesulfonyl-KV[Cit][PABC][Aib]V[Dil][Dolaproine]-Doe), the DAR in series [1] (setting [3]) is 1.42; in series [1] (attachment position L11B) it was 0.66. Further, the “DAR after plasma incubation for 3 to 4.5 days” value (from here on “DAR … to 4.5 days”) in series [1] (attachment position L11B) amounted to 0; in series [1] (attachment position TG6, plasma species not printed in table (values match mouse plasma, Table 4)) it was 0.04. Moreover, the “Conjugate stability (%)” value in series [1] (setting [4]) came to 0%; in series [1] (attachment position TG6, % DAR remaining after incubation in plasma for 3 or 4.5 days), 3%.
In the case of `CC[C@H](C)[C@@H]([C@@H](CC(=O)N1CCC[C@H]1[C@H](OC)[C@@H](C)C(=O)N[C@@H](Cc1ccccc1)c1nccs1)OC)N(C)C(=O)[C@@H](NC(=O)C(C)(C)NC(=O)OCc1ccc(NC(=O)[C@H](CCCNC(N)=O)NC(=O)[C@@H](NC(=O)[C@@H](COCCN)NC(C)=O)C(C)C)cc1)C(C)C` [Example 46, N-acetyl-O-(2-aminoethyl)-D-seryl-L-valyl-N-{4-[(8S,11S,12R)-11-[(2S)-butan-2-yl]-12-(2-{(2S)-2-[(1R,2R)-1-methoxy-2-methyl-3-oxo-3-{[(1S)-2-phenyl-1-(1,3-thiazol-2-yl)ethyl]amino}propyl]pyrrolidin-1-yl}-2-oxoethyl)-5,5,10-trimethyl-3,6,9-trioxo-8-(propan-2-yl)-2,13-dioxa-4,7,10-triazatetradec-1-yl]phenyl}-N˜5˜-carbamoylornithinamide] (Ac-[dS](Ethyl(2-NH2))V[Cit][PABC][Aib]V[Dil][Dolaproine]-Doe), in series [1] (attachment position L11B), the “DAR … to 4.5 days” value turned out to be 0.69 and the DAR is recorded as 1.36. Moreover, in series [1] (setting [4]), the “Conjugate stability (%)” value was determined as 51%.
As for `CC[C@H](C)[C@@H]([C@@H](CC(=O)N1CCC[C@H]1[C@H](OC)[C@@H](C)C(=O)N[C@@H](Cc1ccccc1)c1nccs1)OC)N(C)C(=O)[C@@H](NC(=O)C(C)(C)NC(=O)OCc1ccc(NC(=O)[C@H](CCCNC(N)=O)NC(=O)[C@@H](NC(=O)[C@H](COCCOCCN)NC(C)=O)C(C)C)cc1)C(C)C` [Example 47, N-acetyl-O-[2-(2-aminoethoxy)ethyl]-L-seryl-L-valyl-N-{4-[(8S,11S,12R)-11-[(2S)-butan-2-yl]-12-(2-{(2S)-2-[(1R,2R)-1-methoxy-2-methyl-3-oxo-3-{[(1S)-2-phenyl-1-(1,3-thiazol-2-yl)ethyl]amino}propyl]pyrrolidin-1-yl}-2-oxoethyl)-5,5,10-trimethyl-3,6,9-trioxo-8-(propan-2-yl)-2,13-dioxa-4,7,10-triazatetradec-1-yl]phenyl}-N˜5˜-carbamoylornithinamide] (Ac-S(X3)V[Cit][PABC][Aib]V[Dil][Dolaproine]-Doe), in series [1] (attachment position L11B), the “DAR … to 4.5 days” value worked out at 0.40 and the DAR amounted to 1.96. Also, the “Conjugate stability (%)” value in series [1] (setting [4]) was 20%.
For the molecule `CC[C@H](C)[C@@H]([C@@H](CC(=O)N1CCC[C@H]1[C@H](OC)[C@@H](C)C(=O)N[C@@H](Cc1ccccc1)c1nccs1)OC)N(C)C(=O)[C@@H](NC(=O)C(C)(C)NC(=O)OCc1ccc(NC(=O)[C@H](CCCNC(N)=O)NC(=O)[C@@H](NC(=O)[C@H](COCCOCCOCCOCCOCCOCCN)NC(C)=O)C(C)C)cc1)C(C)C` [Example 48, N-acetyl-O-(17-amino-3,6,9,12,15-pentaoxaheptadec-1-yl)-L-seryl-L-valyl-N-{4-[(8S,11S,12R)-11-[(2S)-butan-2-yl]-12-(2-{(2S)-2-[(1R,2R)-1-methoxy-2-methyl-3-oxo-3-{[(1S)-2-phenyl-1-(1,3-thiazol-2-yl)ethyl]amino}propyl]pyrrolidin-1-yl}-2-oxoethyl)-5,5,10-trimethyl-3,6,9-trioxo-8-(propan-2-yl)-2,13-dioxa-4,7,10-triazatetradec-1-yl]phenyl}-N˜5˜-carbamoylornithinamide] (Ac-S(X1)V[Cit][PABC][Aib]V[Dil][Dolaproine]-Doe), in series [1] (attachment position L11B), the “DAR … to 4.5 days” value is 0 and the DAR is 1.94. Further, in series [1] (setting [4]), the “Conjugate stability (%)” value worked out at 0%.
`Cl.NCCc1ccc(S(=O)(=O)F)cc1` [Pefabloc]: the “inhibition of the mouse plasma enzyme (linker cleavage)” value on mouse plasma enzyme (1 mM, in vitro stability assay with anti-Trop2 L11B C6 vc0101 conjugate as substrate) is reported as “inhibited”.
Take “Ac-Lys-Val-Cit-PABC-0101 [reference compound]”: the DAR was determined as 2.0 in series [2] (Combo_Rd4_0.6nM_C29 anti-BCMA antibody, before incubation, HIC) and 1.94 in series [1] (attachment position H16). Further, the “Conjugate stability (%)” value is reported as 99% in series [2] (anti-BCMA antibody, % DAR remaining after SCID mouse plasma 4.5 days) and 100% in series [1] (attachment position H16, % DAR remaining after plasma 3 or 4.5 days). Also, the “DAR after plasma incubation for 4.5 days” value in series [2] (anti-BCMA antibody, SCID mouse plasma) is reported as 1.98. Besides, the “DAR … to 4.5 days” value in series [1] (attachment position H16) worked out at 1.96.
Consider “AcLys-vc0101 [Example 11, reference compound]”, for which the DAR in series [1] (attachment position H7C) is recorded as 1.90; in series [1] (attachment position H8A), 1.82; in series [1] (attachment position H10) it was 1.62; in series [1] (attachment position L11B), 1.87; in series [1] (attachment position LCQ04), 1.88.
In the case of “AcLys-vcMMAD [Example 9, reference compound]”, in series [1] (setting [3]), the DAR is listed as 1.97.
As to “C6vc0101 [Example 10, reference compound]”, the DAR in series [1] (setting [3]) is on record as 1.98; in series [1] (attachment position H7C) it was 1.52; in series [1] (attachment position H8A), 1.78; in series [1] (attachment position H10), 1.72; in series [1] (attachment position H16) it was 2.00; in series [1] (attachment position L11B) it was 1.88. Moreover, the DAR in series [1] (attachment position LCQ04) is recorded as 1.90; in series [1] (attachment position N297A), 1.89; in series [1] (attachment position N297Q), 3.94.
